Data as given in patent US20260103686A1, “MICROBIAL STRAIN, PROTEIN, AND METHOD FOR PRODUCING GALLIC ACID USING MICROBIAL STRAIN OR PROTEIN” (UNIVERSITY OF TSUKUBA, priority 2022, published 2026).
Positions count from the first letter of the chain named. Names may count otherwise.

B1: Hylemonella gracilis-derived PobA (HgPobA), protocatechuic acid 5-hydroxylase, wild type, SEQ ID NO: 20 (Hylemonella gracilis ATCC 19624) (protein)
chain: MSYPTRTQVAIIGAGPSGLMLGALLHKAGIDTVVLERQSGDYVLGRIRAGVLEQVTMDLMDEIGVGARMHQEGLVHGGFDMLFQGQRHRIDMNRLTGGQNVMVYGQTEVTRDLMDARQQAGLTTIYEAANVAIHDFGSGKPRVTYEKDGKTHELQCDFIAGCDGFHGVCRDTVKKSASASAIREYEKVYNFGWLGLLSDTPPVHHELIYVNSERGFALCSQRSATRSRYYLQVPLTDKVEQWSDQAFWDELKLRLDPQAREHLVTGPSIEKSIAPLRSFVTEPLRFGRLFLAGDAGHIVPPTGAKGLNLAATDVKYLSAALTEFYQGKSEAGINHYSERCLKRIWRAERFSWWFTSLMHRFPENGEIGQKLQEAELDYIVHSETGARSVAENYVGLPLDFGA
B2: Hylemonella gracilis-derived PobA (HgPobA, SEQ ID NO: 20) variant HgPobA-TY, T302A/Y393F (gene SEQ ID NO: 37) (Hylemonella gracilis ATCC 19624; T302A/Y393F) (protein)
chain: B1 chain with T302A, Y393F

Legend:
Test in all cases: purified protein, by the assay type
[1] = substrate: O=C(O)c1ccc(O)cc1; conditions: other: pHBA substrate, 200 µM NADPH, 10 µM FAD, pH 7.9, 25° C., 340 nm
[2] = substrate: O=C(O)c1ccc(O)c(O)c1; format: biochemical, Hylemonella gracilis; conditions: other: PCA substrate, 200 µM NADPH, 10 µM FAD, pH 7.9, 25° C., 340 nm
Method: (§1) The cell-free extracts were subjected to a HisTrap HP column (GE healthcare) which was equilibrated with an equilibration buffer (20 mM Tris-HCl buffer (pH 7.9), 20 mM imidazole), and then fractions eluted with an eluent (20 mM Tris-HCl buffer (pH 7.9), 500 mM imidazole) were collected.
The protein concentrations of the purified enzyme liquids were measured using Bio-Rad Protein Assay Dye Reagent Concentrate (Bio-Rad, USA), and the purified enzyme liquids were diluted to 1 of mg/mL with a buffer. Thus, purified enzyme liquids protocatechuic acid 5-hydroxylases, HgPobA, HyPobA, PoPobA, HgPobA-TY and PaPobA, were prepared.
Using the purified enzyme liquids of HgPobA, HgPobA-TY, PoPobA, HyPobA and PaPobA described above, a reaction kinetic analysis was conducted.

[3] = substrate: O=C(O)c1ccc(O)c(O)c1; conditions: other: PCA substrate, 200 µM NADPH, 10 µM FAD, pH 7.9, 25° C., 340 nm
Method: as §1
The protein concentrations of the purified enzyme liquids were measured using Bio-Rad Protein Assay Dye Reagent Concentrate (Bio-Rad, USA), and the purified enzyme liquids were diluted to 1 of mg/mL with a buffer.

Protein	Km [1]	kcat [1]	kcat/Km [1]	Km [2]	kcat [2]	kcat/Km [2]	Km [3]
B1	35 µM	5.6 s⁻¹	160000 M⁻¹ s⁻¹	260 µM	0.74 s⁻¹	2800 M⁻¹ s⁻¹	–
B2	34 µM	3.1 s⁻¹	91000 M⁻¹ s⁻¹	–	–	–	41 µM
